2 molecules from patent publication US20230087785A1, “Leucine-Rich Repeat Kinase 2 Allosteric Modulators” (VIB VZW, priority 2020, published 2023) can be followed below.

For one data set, the target named is T1, endogenous LRRK2 (Mus musculus, UniProt Q5S006).
T1 construct: endogenous in cells; host or cells: RAW264.7
The experiment in a line: Colocalization of GFP-Nbs with endogenous LRRK2 on zymosan-containing phagosomes in RAW264.7 cells. The format is cell-based. The following applies: RAW264.7 cells transfected with GFP-Nbs, zymosan 30 mins, fixed cells. On the procedure:
RAW264.7 cells were transfected with GFP-fused Nbs and treated with Zymosan for 30 mins. Recruitment of LRRK2 and Nbs to the phagosomes was analyzed by immunofluorescence. FIG. 16A, images for Nb38, Nb22, Nb23, Nb40, No Nb, or Irrelevant (IRR) Nb treatments; FIG. 16B, images for Nb36, Nb42, Nb17, Nb39, Nb1, and Nb6 treatments. Scale bar=10 μm.
To test whether Nbs can trace and visualize endogenous LRRK2 in fixed cells, we generated green fluorescent protein (GFP)-Nb fusions (fluobodies) as described before. Recently, it was shown that LRRK2 is recruited to phagosomes upon induction of phagocytosis in immune cells. Therefore, RAW264.7 cells were transfected with these fluobodies and treated with killed yeast bioparticles “zymosan” to induce phagocytosis.
RAW264.7 cells (ATCC® SC-6003™) were transfected with peGFP-Nb constructs using JetOPTIMUS (Polyplus transfection) for 24 hrs and then stimulated with Zymosan particles (Sigma Aldrich) for 30 mins ([…]). Immunostaining for LRRK2 was performed as reported before. Briefly, cells fixed with 4% (w/v) paraformaldehyde for 30 min, followed by treatment with 100% EtOH at −20° C. Sampled were permeabilized with PBS/0.5% Triton X-100 and blocked with 3% BSA. Primary antibodies (rabbit anti-LRRK2, c41-2, Abcam and mouse anti-GFP, G6539, Sigma Aldrich) were diluted in PBS containing 3% BSA and 0.5% Triton X-100 and incubated overnight at 4° C. After three 5-min washes with PBS, secondary fluorescently labeled antibodies (anti-rabbit-Alexa fluor 568 and anti-mouse-Alexa fluor 488, Invitrogen) were added in a similar manner to primary antibodies and incubated for 1 hour at room temperature. Cells were washed twice with 1×PBS and mounted with Fluroshield antifade reagent with DAPI (SigmaAldrich). Images were acquired on Zeiss LSM800 confocal laser scanning microscope. Image analysis of z-scan was done using the Zeiss microscope software ZEN.

The target of another data set is T2, LRRK2(G2019S) (Homo sapiens, UniProt Q5S007, G2019S/M2397T/R50H).
T2 construct: SF tag (FLAG + Twin-Strep); expressed in transfected cells; host or cells: HEK 293T
T2 sequence (Q5S007 whole entry R50H/G2019S/M2397T): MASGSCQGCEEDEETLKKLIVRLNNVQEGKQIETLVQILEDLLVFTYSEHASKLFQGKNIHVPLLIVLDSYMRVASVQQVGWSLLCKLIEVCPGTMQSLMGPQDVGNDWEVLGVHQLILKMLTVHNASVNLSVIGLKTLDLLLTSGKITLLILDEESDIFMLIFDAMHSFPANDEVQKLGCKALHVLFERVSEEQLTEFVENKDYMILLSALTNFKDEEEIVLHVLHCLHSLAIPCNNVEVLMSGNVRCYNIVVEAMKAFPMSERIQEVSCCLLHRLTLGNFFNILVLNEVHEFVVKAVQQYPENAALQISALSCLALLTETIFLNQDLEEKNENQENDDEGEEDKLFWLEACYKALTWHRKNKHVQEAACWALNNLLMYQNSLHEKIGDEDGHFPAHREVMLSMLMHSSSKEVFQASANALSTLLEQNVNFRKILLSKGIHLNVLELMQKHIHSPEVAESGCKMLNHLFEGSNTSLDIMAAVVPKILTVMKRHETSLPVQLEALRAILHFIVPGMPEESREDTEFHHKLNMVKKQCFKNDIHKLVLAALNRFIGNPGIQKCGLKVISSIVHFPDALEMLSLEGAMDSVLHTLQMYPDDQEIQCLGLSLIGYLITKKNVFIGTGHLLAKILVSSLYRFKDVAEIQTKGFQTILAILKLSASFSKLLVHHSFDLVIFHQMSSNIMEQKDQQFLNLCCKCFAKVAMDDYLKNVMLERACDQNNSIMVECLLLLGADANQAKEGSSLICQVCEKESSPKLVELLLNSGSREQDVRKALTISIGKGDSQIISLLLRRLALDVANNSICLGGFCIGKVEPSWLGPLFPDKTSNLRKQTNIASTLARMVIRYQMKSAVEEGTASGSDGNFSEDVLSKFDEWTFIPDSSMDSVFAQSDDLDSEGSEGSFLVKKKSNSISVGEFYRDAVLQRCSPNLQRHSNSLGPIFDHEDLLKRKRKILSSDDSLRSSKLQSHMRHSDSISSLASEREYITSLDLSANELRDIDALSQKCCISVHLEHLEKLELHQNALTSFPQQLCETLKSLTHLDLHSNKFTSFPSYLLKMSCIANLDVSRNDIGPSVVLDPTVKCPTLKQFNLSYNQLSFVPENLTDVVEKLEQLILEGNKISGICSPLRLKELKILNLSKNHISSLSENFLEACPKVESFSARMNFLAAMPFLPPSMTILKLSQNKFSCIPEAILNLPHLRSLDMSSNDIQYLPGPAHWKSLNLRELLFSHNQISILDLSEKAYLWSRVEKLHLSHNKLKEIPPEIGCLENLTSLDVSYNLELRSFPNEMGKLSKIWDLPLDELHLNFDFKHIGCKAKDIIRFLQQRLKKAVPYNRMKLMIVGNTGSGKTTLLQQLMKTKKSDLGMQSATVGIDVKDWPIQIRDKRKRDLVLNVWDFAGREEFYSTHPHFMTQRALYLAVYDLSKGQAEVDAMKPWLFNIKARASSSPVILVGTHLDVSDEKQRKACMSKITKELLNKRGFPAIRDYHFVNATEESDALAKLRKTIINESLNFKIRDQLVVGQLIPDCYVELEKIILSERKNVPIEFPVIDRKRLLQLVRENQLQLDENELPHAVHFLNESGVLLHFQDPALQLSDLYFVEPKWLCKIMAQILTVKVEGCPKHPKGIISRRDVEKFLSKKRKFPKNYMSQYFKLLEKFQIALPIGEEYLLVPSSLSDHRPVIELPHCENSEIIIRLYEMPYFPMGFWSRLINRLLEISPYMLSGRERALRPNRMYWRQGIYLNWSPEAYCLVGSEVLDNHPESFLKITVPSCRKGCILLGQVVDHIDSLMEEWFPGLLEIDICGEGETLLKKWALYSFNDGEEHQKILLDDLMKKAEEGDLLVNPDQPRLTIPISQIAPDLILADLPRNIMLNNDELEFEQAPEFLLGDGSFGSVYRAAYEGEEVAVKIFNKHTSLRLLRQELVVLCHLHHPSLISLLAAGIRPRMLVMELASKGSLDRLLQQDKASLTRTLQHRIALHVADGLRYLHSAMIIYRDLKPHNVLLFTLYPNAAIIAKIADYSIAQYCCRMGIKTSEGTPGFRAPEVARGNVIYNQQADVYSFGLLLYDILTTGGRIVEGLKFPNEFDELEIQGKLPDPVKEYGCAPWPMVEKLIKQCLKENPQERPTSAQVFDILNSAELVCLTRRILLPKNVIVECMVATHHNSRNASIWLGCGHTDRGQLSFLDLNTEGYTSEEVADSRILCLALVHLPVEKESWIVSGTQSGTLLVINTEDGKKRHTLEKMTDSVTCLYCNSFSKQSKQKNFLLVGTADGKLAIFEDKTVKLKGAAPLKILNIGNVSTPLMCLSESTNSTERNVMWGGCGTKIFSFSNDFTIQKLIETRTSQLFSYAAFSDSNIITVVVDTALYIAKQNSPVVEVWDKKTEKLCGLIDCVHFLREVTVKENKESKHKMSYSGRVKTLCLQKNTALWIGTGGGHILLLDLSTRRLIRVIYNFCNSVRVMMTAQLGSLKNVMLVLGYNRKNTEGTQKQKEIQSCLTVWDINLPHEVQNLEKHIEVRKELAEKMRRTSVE
The data set is described as follows: In cellulo phospho-Rab / LRRK2 autophosphorylation assay in HEK293T cells. In kind it is cell-based. Further details: key to Functional Group (see FIG. 2d): Group 1: group 1: Nbs that inhibit both LRRK2 autophosphorylation and Rab10 phosphorylation in cells; Group 2: group 2: Nbs that inhibit only Rab10 phosphorylation; Group 3: group 3: Nbs that activate LRRK2 kinase activity; Group 4: group 4: Nbs that have no consistent/clear effect on LRRK2 kinase activity. The following applies: for influence on LRRK2 kinase activity compared to the controls: Western blot; for Functional Group (see FIG. 2d): classification by effect on in cellulo LRRK2(G2019S) kinase activity. On the procedure:
(FIGS. 2A-2C) LRRK2(G2019S) and its effector Rab29 were overexpressed together with GFP-fused Nbs (“Fluobody”) in HEK293T cells. A negative control, where no Nb is overexpressed (“No Nb”) is also included. […] In rows labeled “pLRRK2”, LRRK2 pS1292 levels are determined by Western Blot using a site-specific anti-pLRRK2(pS1292) antibody (Abcam, ab203181) (shown at different times of development). In the rows labeled “pRAB10”, endogenous pT72-Rab10 levels are determined by Western Blot using the MJFF/Abcam antibody MJF-R21 (Abcam, ab230261) (shown at different times of development). The three lower rows contain controls of LRRK2 (rat anti-LRRK2, 24D8), Fluobody (rat anti-GFP) and Rab10 (rabbit anti-Rab10) expression levels. (FIG. 2D) Based on the results of panels (FIGS. 2A-2C) the Nbs can be divided into 4 functional groups, with group 1: Nbs that inhibit both LRRK2 autophosphorylation and Rab10 phosphorylation in cells; group 2: Nbs that inhibit only Rab10 phosphorylation; group 3: Nbs that activate LRRK2 kinase activity; group 4: Nbs that have no consistent/clear effect on LRRK2 kinase activity.
To assess the influence of the Nbs on LRRK2 kinase activity we monitored two physiologically and disease relevant activities of LRRK2: phosphorylation of the endogenous substrate Rab10 at position T72 and LRRK2 autophosphorylation at position S1292 [25-30]. […] In our cellular assay we thus co-expressed LRRK2(G2019S), Rab29 and the different Nb-GFP fusions in HEK 293T cells (FIG. 2a-c).
HEK 293T cells were cultured in DMEM (supplemented with 10% Fetal Bovine Serum, […] L-Glutamine and 0.5% Pen/Strep). For the assay, the cells were seeded onto six-well plates and transfected at a confluency of 50-70% with the individual Nb-GFP expression constructs, SF-tagged LRRK2(G2019S) and FLAG-HA Rab29 using a self-made polyethylenimine (PEI)-based transfection reagent. After 48 hrs cells were lysed in lysis buffer [30 mM Tris-HCL (pH7.4), 150 mM NaCl, 0.5% Nonident-P40, complete protease inhibitor cocktail, phosphatase inhibitor cocktail II & III (all Sigma)]. Lysates were cleared by centrifugation at 10,000×g and adjusted to a protein concentration of 1 μg/μl in 1× Laemmli Buffer. Samples were subsequently subjected to SDS PAGE and Western Blot analysis to determine LRRK2 pS1292 and Rab10 T72 phosphorylation levels, as described below. Total LRRK2 and Rab10 levels were determined as a reference.
For western blot analysis, protein samples were separated by SDS-PAGE using NuPAGE 10% Bis-Tris gels (Invitrogen) and transferred onto PVDF membranes (Thermo Fisher). To allow simultaneous probing for LRRK2 on the one hand and Rab and the Nb-GFP fusions on the other hand, membranes were cut horizontally at the 140 kDa MW marker band. After blocking non-specific binding sites with 5% non-fat dry milk in TBST (1 h, RT) (25 mM Tris, pH 7.4, 150 mM NaCl, 0.1% Tween-20), membranes were incubated overnight at 4° C. with primary antibodies at dilutions specified below. Phospho-specific antibodies were diluted in TBST/5% BSA (Roth GmbH). Non-phospho-specific antibodies were diluted in TBST/5% non-fat dry milk powder (BioRad). Phospho-Rab10 levels were determined by the site-specific rabbit monoclonal antibody anti-pRAB10([…]) (Abcam, ab230261) and LRRK2 autophosphorylation was determined by the site-specific rabbit monoclonal antibody anti-pLRRK2(pS1292) (Abcam, ab203181), both at a dilution of 1:2,000. Total LRRK2 levels were determined by the in-house rat monoclonal antibody anti-pan-LRRK2 (clone 24D8; 1:10,000). Total Rab10 levels were determined by the rabbit monoclonal antibody anti-RAB10/ERP13424 (Abcam, ab181367) at a dilution of 1:5,000. Nb-GFP fusion proteins were detected using the rat monoclonal antibody anti-GFP (clone 3H9, ChromoTec) at a dilution of 1:2,000. For detection, goat anti-rat IgG or anti-rabbit IgG HRP-coupled secondary antibodies (Jackson ImmunoResearch) were used at a dilution of 1:15,000 in TBST/5% non-fat dry milk powder. […]
(Immunoblotting shows a protein as a band on a membrane.)

Setting [1] is: HEK 293T cells co-expressing LRRK2(G2019S), Rab29 and Nb-GFP.

T1 sequence (Q5S006 whole entry): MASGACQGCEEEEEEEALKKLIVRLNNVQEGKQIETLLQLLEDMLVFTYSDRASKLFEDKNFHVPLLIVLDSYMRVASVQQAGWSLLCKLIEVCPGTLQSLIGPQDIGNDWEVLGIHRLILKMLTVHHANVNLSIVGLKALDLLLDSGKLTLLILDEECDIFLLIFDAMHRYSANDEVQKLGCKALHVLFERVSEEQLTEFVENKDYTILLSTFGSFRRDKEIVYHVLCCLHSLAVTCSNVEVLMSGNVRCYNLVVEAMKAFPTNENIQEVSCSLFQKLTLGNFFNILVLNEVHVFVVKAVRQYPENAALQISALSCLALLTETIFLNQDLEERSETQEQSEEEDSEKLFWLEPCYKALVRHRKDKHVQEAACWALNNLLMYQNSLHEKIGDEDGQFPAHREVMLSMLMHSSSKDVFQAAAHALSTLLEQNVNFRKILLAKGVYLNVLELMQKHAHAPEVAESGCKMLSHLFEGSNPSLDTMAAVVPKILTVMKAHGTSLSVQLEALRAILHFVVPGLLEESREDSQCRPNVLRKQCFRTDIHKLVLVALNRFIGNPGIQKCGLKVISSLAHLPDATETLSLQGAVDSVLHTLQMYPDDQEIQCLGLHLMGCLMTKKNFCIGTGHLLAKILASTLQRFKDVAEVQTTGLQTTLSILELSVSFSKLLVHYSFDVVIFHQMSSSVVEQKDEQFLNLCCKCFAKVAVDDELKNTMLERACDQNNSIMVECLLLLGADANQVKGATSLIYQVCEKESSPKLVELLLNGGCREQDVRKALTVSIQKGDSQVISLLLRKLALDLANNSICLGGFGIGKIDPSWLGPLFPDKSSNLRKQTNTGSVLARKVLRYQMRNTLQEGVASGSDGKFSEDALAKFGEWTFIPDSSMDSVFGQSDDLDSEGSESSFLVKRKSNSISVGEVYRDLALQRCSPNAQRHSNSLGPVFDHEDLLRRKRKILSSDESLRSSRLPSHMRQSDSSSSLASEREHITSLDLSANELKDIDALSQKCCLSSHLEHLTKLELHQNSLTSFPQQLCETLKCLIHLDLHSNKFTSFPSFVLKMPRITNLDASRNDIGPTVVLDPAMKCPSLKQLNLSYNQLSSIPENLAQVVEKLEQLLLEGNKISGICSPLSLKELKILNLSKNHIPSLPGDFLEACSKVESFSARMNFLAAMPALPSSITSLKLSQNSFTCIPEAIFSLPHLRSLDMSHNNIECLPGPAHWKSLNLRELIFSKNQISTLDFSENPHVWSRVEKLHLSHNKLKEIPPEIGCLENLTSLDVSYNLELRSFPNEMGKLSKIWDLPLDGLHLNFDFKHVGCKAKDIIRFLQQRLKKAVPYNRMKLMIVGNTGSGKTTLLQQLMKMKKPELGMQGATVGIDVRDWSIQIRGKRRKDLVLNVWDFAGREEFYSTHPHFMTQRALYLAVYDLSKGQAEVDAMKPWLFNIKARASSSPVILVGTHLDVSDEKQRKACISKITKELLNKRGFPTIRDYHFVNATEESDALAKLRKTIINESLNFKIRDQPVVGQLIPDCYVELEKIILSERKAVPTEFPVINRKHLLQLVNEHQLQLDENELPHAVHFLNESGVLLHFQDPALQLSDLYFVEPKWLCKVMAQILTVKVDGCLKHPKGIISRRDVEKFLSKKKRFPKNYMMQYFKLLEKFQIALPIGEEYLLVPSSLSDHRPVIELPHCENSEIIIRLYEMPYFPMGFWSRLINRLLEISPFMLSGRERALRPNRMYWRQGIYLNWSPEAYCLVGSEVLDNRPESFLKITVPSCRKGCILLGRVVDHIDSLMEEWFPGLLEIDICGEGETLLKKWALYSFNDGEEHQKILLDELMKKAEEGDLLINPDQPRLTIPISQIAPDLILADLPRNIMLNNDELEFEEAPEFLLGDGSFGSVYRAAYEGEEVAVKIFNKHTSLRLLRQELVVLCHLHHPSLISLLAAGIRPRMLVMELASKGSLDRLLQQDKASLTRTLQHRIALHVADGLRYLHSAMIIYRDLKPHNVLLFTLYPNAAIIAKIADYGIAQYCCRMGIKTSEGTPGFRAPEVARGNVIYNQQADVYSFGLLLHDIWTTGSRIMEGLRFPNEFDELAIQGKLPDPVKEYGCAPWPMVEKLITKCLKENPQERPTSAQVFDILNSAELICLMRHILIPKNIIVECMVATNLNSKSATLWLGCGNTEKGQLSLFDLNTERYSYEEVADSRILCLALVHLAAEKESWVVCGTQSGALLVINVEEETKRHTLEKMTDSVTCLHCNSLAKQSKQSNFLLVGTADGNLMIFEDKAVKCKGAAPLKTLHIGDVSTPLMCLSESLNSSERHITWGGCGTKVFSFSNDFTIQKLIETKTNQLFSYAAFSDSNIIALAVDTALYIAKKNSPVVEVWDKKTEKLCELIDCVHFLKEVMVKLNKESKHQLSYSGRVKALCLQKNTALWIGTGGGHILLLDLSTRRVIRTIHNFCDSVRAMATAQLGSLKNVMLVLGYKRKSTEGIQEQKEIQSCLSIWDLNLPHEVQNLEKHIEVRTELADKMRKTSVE

B1: Nb38: LRRK2-specific Nanobody, SEQ ID NO: 8 (protein)
VHH: MAQVQLVESGGGLVQPGGSLRLSCAASGSIRSIATSAWYRQPPGKQRELVAGISSGTTTNYADSVKGRFTISRDNAKNTVYLQMNSLKPEDTAVYYCHAWISGTWISGQGTQVTVSS
modifications: Nanobody CA14133
Turning to B1, the “colocalization with endogenous LRRK2 on phagosomes” value with endogenous LRRK2 is listed as “clearly colocalized with LRRK2 on zymosan-containing phagosomes”. Further, in the data set with LRRK2(G2019S) (setting [1]), the “LRRK2 autophosphorylation at position S1292” value was “inhibiting S1292 phosphorylation at a lesser extent” and the “influence on LRRK2 kinase activity compared to the controls” value is reported as “strongly decreased LRRK2 autophosphorylation and/or Rab10 phosphorylation”. Moreover, in the data set with LRRK2(G2019S), the “Functional Group (see FIG. 2d)” value is recorded as “Group 2”. In the data set with LRRK2(G2019S) (endogenous Rab10, HEK 293T cells co-expressing LRRK2(G2019S), Rab29 and Nb-GFP), the “Rab10 phosphorylation at position T72” value is “inhibit Rab10 phosphorylation”.

B2: Nb39: LRRK2-specific Nanobody, SEQ ID NO: 10 (protein)
VHH: MAQVQLVESGGGLVQAGGSLRLSCRASGGTFSTYAMGWFRQVPGKERETVAAVKWSGDMTYYADSVKGRFTISRDNAKNTVYLQMNSLRPEDTAVYYCAARRGLSYYRGPSEYDYWGQGTQVTVSS
modifications: Nanobody CA14134
Take B2: the “colocalization with endogenous LRRK2 on phagosomes” value in the data set with endogenous LRRK2 is “LRRK2 recruitment to phagosomes was slightly detectable”. The “influence on LRRK2 kinase activity compared to the controls” value with LRRK2(G2019S) (setting [1]) is “no influence on LRRK2 kinase activity”. Moreover, in the data set with LRRK2(G2019S), the “Functional Group (see FIG. 2d)” value is given as “Group 4”.
